According to the RNAGym collection of RNA variant scans (doi:10.7554/elife.90254):

B1: LINE1-full (parent)
chain: UACGUAGGUGGUUUUCCCCUGAUAGUGCUAAGGGGGCCUGGAAGUUUGGACUGGGCAGAGCUCAACACAGCGUGGCAAAGUGGCUGUGGCUAGACUGCCUCUCUGGAUUCCUCGUCACUCAGCAGGGCAUCUCUGAGAGAAAUGCC

Variants of: B1
Assay: self-cleavage, relative activity (ratio to wild type); higher = more cleavage; in vitro, sequencing; the parent is a self-cleaving ribozyme

Row | Variant | self-cleavage
1 | A31U A64U | 0.42
2 | A31G A140G | 1.79
3 | U29C A121G | 1.43
4 | A30G C84A | 0.22
5 | A30G C84G | 0.17
6 | A30G G48A | 0.5
7 | U29A C133U | 0.85
8 | U29C G32A | 1.08
9 | U29C C131U | 0.93
10 | A30U A129G | 0.58
11 | A30U A129U | 1.38
12 | A30U A65U | 0.19
13 | A31C A59C | 0.61
14 | A31C A59G | 0.26
15 | A30U G34A | 1.13
16 | A30C U130A | 0.75
17 | A31G U104C | 1.91
18 | A31G U87A | 0.13
19 | A30G A129U | 0.89
20 | A30U A124G | 0.84
21 | U29C G41U | 0.65
22 | U29C G41A | 1.32
23 | U29A A124G | 0.91
24 | U29A U115C | 1.98

Row | Variant | self-cleavage
25 | A30G A69G | 0.55
26 | A30G A69C | 0.26
27 | U29G A64G | 0.6
28 | C28U U81C | 1.39
29 | C28U U81A | 1.44
30 | A30U U52C | 1.09
31 | U29A A78U | 1.48
32 | U29G C71G | 0.23
33 | U29C C113U | 1.44
34 | U29A U134A | 1.19
35 | A31G A77G | 2.49
36 | A30G G114A | 0.92
37 | U29C U45A | 0
38 | U29C A77G | 1.92
39 | A30U G74C | 1.27
40 | A30G A77G | 2.12
41 | A30U U102A | 0.58
42 | A30U U102C | 0.75
43 | A31G A79U | 2.64
44 | U29C G126A | 0.77
45 | A30G G139A | 1.31
46 | A31G U39C | 1.17
47 | U29A U85A | 0.12
48 | U29A U85C | 0.29

Row | Variant | self-cleavage
49 | A30G A42U | 1.06
50 | A30G U100C | 1.07
51 | A30G U100A | 1.59
52 | A30G C99U | 1.03
53 | A31G A129G | 1.05
54 | A30G A78U | 1.44
55 | A30G A78G | 1.34
56 | C28U C101U | 1.06
57 | A30U G40U | 0.97
58 | A30U G89U | 0.03
59 | C28U U52C | 1.58
60 | A31G G32A | 1.25
61 | A31G G32U | 1.13
62 | U29A U109C | 1.25
63 | U29C A92U | 0.81
64 | U29C G34A | 0.73
65 | A30U U85C | 0.1
66 | A30G A121G | 0.52
67 | A30G A121U | 0.84
68 | A30U C56U | 0.04
69 | A30G U46C | 1.06
70 | A30G U46A | 0.84
71 | A30G A65U | 0.39
72 | U29C U46C | 1.36

Row | Variant | self-cleavage
73 | A31C U143A | 1.01
74 | A31G C118U | 1.73
75 | U29A U108C | 2.61
76 | C28U G54A | 0.65
77 | U29C A50G | 0.82
78 | A31C A129U | 1.51
79 | U29A G35U | 1.16
80 | A31G C131U | 0.61
81 | A30U A59G | 0.22
82 | U29A C145U | 0.61
83 | U29C G105A | 1.13
84 | U29C C68U | 0.4
85 | A30G A67U | 0.1
86 | A30G A67G | 0.51
87 | U29C A31U | 1
88 | A30U A64U | 0.51
89 | A30U G54U | 0.84
90 | U29A U81C | 0.92
91 | A30G C116U | 1.27
92 | A30G A140C | 0.93
93 | A31C U47A | 1.12
94 | A31G G83A | 0.69
95 | A30G A142U | 0.99
96 | A30G A142G | 1.07

Row | Variant | self-cleavage
97 | U29C U100A | 1.42
98 | U29C A79G | 1.16
99 | U29C A79U | 2.16
100 | A30G U39A | 0.98
101 | A30G U39C | 1.13
102 | A31G G36C | 1.67
103 | A31G G36A | 0.99
104 | A30G G135A | 1.4
105 | U29C A43U | 1.18
106 | U29C A43G | 1.29
107 | A30C G122A | 1.02
108 | U29A A136G | 1.38
109 | U29A A136U | 1.38
110 | U29C G144A | 1.22
111 | U29A A140G | 1.3
112 | A30U G49U | 0.85
113 | U29A A64U | 0.25
114 | U29A U73A | 1.55
115 | A30G U87C | 0.11
116 | A31G U132A | 0.94
117 | A30G A124U | 1.44
118 | U29A U104A | 1.26
119 | U29G U115C | 0.63
120 | A31G U130A | 1.26

Row | Variant | self-cleavage
121 | A31G U130C | 1.45
122 | A30U G33A | 1.23
123 | U29C C111U | 1.13
124 | A31G U62C | 0.13
125 | A31G A124G | 1.09
126 | A31G A92G | 0.09
127 | A31G A57U | 0.3
128 | A31G A57G | 0.95
129 | U29C U62A | 0.03
130 | U29A G74A | 0.59
131 | A30G A59U | 0.78
132 | U29C A57U | 0.33
133 | U29C A57G | 0.98
134 | A30G G49U | 0.89
135 | A30U A121C | 0.55
136 | A30U A121G | 1.08
137 | A30C A136U | 1.19
138 | C28U A142G | 0.79
139 | A31C A140G | 1.18
140 | A30G A43G | 0.78
141 | A30U A140G | 1.76
142 | A30U A140U | 0.67
143 | A30G G126C | 1.72
144 | U29G U87C | 0.19

Row | Variant | self-cleavage
145 | A30C A65G | 0.08
146 | U29C U130A | 1.26
147 | U29C U130C | 1.52
148 | A31G A107G | 1.09
149 | C28U A138U | 0.9
150 | A30C G58U | 0.09
151 | A31U A57U | 0.24
152 | A30U C38A | 0.35
153 | U29C U39G | 0.51
154 | U29C U39C | 1.74
155 | U29A G41A | 1.7
156 | A30U A77U | 0.98
157 | A31G G126A | 1.32
158 | U29G C99A | 0.42
159 | A30G C66U | 0.05
160 | A30G U102G | 1.84
161 | U29G A78G | 0.87
162 | A31C A141G | 1.43
163 | A30G C90U | 0.07
164 | U29C U143C | 1.75
165 | A30G G35A | 1.11
166 | C28U A136G | 0
167 | U29A U46C | 1.21
